Reference: US20240159767A1

Target: PKA substrate fused to MinD (phosphorylated form) (Escherichia coli)
Test: power ratio of live-cell fluorescence oscillations, saturating isoprenaline

FHA1-mCerulean (from UniProt P22216 22-162)
fold increase of the power ratio of the FHA1 signal to the MinDE carrier after a saturating dose of isoprenaline against resting cells: < 7 fold
